Laboratory results from PMC10823522, “Antibodies Raised Against an Aβ Oligomer Mimic Recognize Pathological Features in Alzheimer’s Disease and Associated Amyloid-Disease Brain Tissue” (ACS Central Science, 2023).

Assays:
[1] = target: 2AT-L, covalently stabilized triangular trimer composed of three Aβ17-36 β-hairpin peptides (2AM-LCC); experiment: SDS-PAGE; silver stained; Tris buffer at pH 6.8 with 2% (w/v) SDS; 5.0, 2.5, 1.25 and 0.6 μg of 2AT-L or 2AM-L in each lane
[2] = target: 2AT-L, covalently stabilized triangular trimer composed of three Aβ17-36 β-hairpin peptides (2AM-LCC); experiment: crystal structure; X-ray crystallographic structure of 2AT-L at 1.8 Å; assembly seen in the crystal lattice
[3] = ThT aggregation assay of Aβ42; type: physicochemical; conditions: 6.25 μM Aβ42 in PBS pH 7.4, 10 μM ThT, 25 °C, quiescent; ex 440 nm, em 485 nm
Procedure: Figure 3 In vitro characterization of pAb2AT-L with 2AT-L and 2AM-L and Aβ42. (A) Indirect ELISA of pAb2AT-L against 2AT-L, 2AM-L, and BSA. (B) Western blot analysis of pAb2AT-L against a concentration gradient of 2AT-L. SDS-PAGE was performed on a 16.5% Tris-Tricine gel (Bio-Rad); 10 μL was loaded in each lane. (C) Indirect ELISA of pAb2AT-L and 6E10 against Aβ42. (D and E) Western blot analysis of pAb2AT-L (D) and 6E10 (E) against a concentration gradient of Aβ42. SDS-PAGE was performed on a 16.5% Tris-Tricine gel (Bio-Rad); 10 μL was loaded in each lane. (F and G) Dot blot analysis of pAb2AT-L (F) and 4G8 (G) against 6.25 μM Aβ42 aggregated over time in PBS. A 1 μL portion of the Aβ42 solution was spotted in triplicate on 0.2 μm nitrocellulose membranes every 30 min for 5 h and then at 96 h. (H and I) Average integrated spot density from the dot blots in F and G. Integrated density for each spot was determined using ImageJ. (J and K) Change in integrated spot density from the 0-h time point. (L) ThT aggregation assay of 6.25 μM Aβ42. The ThT assay was performed at 25 °C under quiescent conditions in PBS (10 mM Na2HPO4, 1.8 mM KH2PO4, 137 mM NaCl, 2.7 mM KCl) at pH 7.4 containing 10 μM ThT. ThT fluorescence was monitored at 440 nm excitation and 485 nm emission. […]

SDS-PAGE = type: physicochemical; conditions: Aβ42, 16.5% Tris-Tricine gel, 0.25–0.016 mM, 10 μL per lane
cells = conditions: cited from earlier work
Source text: Like oligomers of full-length Aβ, 2AT-L is toxic toward cells in culture, eliciting toxicity by interacting with the cells and promoting membrane disruption and release of LDH, depleting ATP, and activating caspase-3/7-mediated apoptosis.

Aβ and its aggregates = conditions: cited from earlier work
Source text: The 6E10 and 4G8 monoclonal antibodies—among the most extensively used Aβ antibodies in Alzheimer’s disease research—were generated by immunizing mice with a peptide fragment that encompassed the N-terminal half of Aβ (Aβ1–24).[58],[59]

[4] = system: Aβ protofibrils in brain and cerebrospinal fluid; conditions: Alzheimer's disease transgenic mice; cited from earlier work
Source text: Antibodies that target monomeric, oligomeric, and fibrillar forms of the β-amyloid peptide (Aβ) are valuable tools for Alzheimer’s disease research and have emerged as Alzheimer’s disease therapies.[4],[5] […] These antibodies act by binding Aβ aggregates and facilitating their clearance from the brain, mitigating both the direct and downstream damaging eff ...

In the case of “2AT-L, covalently stabilized triangular trimer composed of three Aβ17-36 β-hairpin peptides (2AM-LCC) (complex)”, the stoichiometry N (copies of 2AT-L) [1] is reported as 4 and the stoichiometry N (copies of 2AT-L) [2] is reported as 4.

With Aβ42: 42-amino-acid alloform of Aβ the “time at which ThT-reactive aggregates begin to form” value [3] was 1 h, the “time at which ThT-reactive aggregates plateau” value [3] was 1.75 h and the “predominant oligomers on SDS-PAGE” value (SDS-PAGE) was “migrate at a molecular weight consistent with a trimer and tetramer”.

For “full-length Aβ: full-length β-amyloid peptide”, the “ATP depletion by full-length Aβ” value (cells) is listed as “ATP depletion”, the “LDH release by full-length Aβ” value (cells) is listed as “promotes LDH release” and the “caspase-3/7 activation by full-length Aβ” value (cells) is listed as “caspase-3/7 activation”.

B1: Donanemab: anti-Aβ antibody drug (antibody, chains of the INN, looked up, V domains shown)
VH: QVQLVQSGAEVKKPGSSVKVSCKASGYDFTRYYINWVRQAPGQGLEWMGWINPGSGNTKYNEKFKGRVTITADESTSTAYMELSSLRSEDTAVYYCAREGITVYWGQGTTVTVSS
VL: DIVMTQTPLSLSVTPGQPASISCKSSQSLLYSRGKTYLNWLLQKPGQSPQLLIYAVSKLDSGVPDRFSGSGSGTDFTLKISRVEAEDVGVYYCVQGTHYPFTFGQGTKLEIK
In the case of B1, the “target of Donanemab” value (Aβ and its aggregates) is given as “targets N-terminally pyroglutamated Aβ that is aggregated in Aβ plaques”.

B2: Lecanemab: anti-Aβ antibody drug (antibody, chains of the INN, looked up, V domains shown)
VH: EVQLVESGGGLVQPGGSLRLSCSASGFTFSSFGMHWVRQAPGKGLEWVAYISSGSSTIYYGDTVKGRFTISRDNAKNSLFLQMSSLRAEDTAVYYCAREGGYYYGRSYYTMDYWGQGTTVTVSS
VL: DVVMTQSPLSLPVTPGAPASISCRSSQSIVHSNGNTYLEWYLQKPGQSPKLLIYKVSNRFSGVPDRFSGSGSGTDFTLRISRVEAEDVGIYYCFQGSHVPPTFGPGTKLEIK
In the case of B2, the “Aβ protofibrils in brain and cerebrospinal fluid” value [4] is listed as “reduced Aβ protofibrils in the brain and cerebrospinal fluid” and the “target selectivity of Lecanemab” value (Aβ and its aggregates) is listed as “selectively targets Aβ protofibrils”.
